Biological target: filamentous actin (F-actin) (not stated (human platelet or rabbit muscle actin)) (UniProt P68135)
Experiment: co-sedimentation; 0.5 µM NMY-2S1 incubated with different amounts of actin, 150,000 g for 1.5 h at room temperature; percent of NMY-2 S1 in the pellet fitted with a one-site specific binding model

Kd	Substance
660 nM	wild-type NMY-2S1 (NMY-2 S1 fragment bound to MLC-4 and MLC-5) (from UniProt G5EBY3 1-874; Q09510 1-172; Q9XVI9 1-142) (complex)
660 nM	NMY-2(S250A)S1 (NMY-2 S1 fragment S250A bound to MLC-4 and MLC-5) (from UniProt G5EBY3 1-874; Q09510 1-172; Q9XVI9 1-142) (complex)
2460 nM	NMY-2(R252A)S1 (NMY-2 S1 fragment R252A bound to MLC-4 and MLC-5) (from UniProt G5EBY3 1-874; Q09510 1-172; Q9XVI9 1-142) (complex)
62 nM	NMY-2(S251A)S1 (NMY-2 S1 fragment S251A bound to MLC-4 and MLC-5) (from UniProt G5EBY3 1-874; Q09510 1-172; Q9XVI9 1-142) (complex)
